Source: the DeepSol protein solubility set

experiment: soluble on expression in E. coli; label from the status in PepcDB or PDB records

Row | Sequence | soluble on expression in E. coli
1 | MGSDKIHHHHHHMKLVVATNFDDSLLEGLKRYPDVKYIFGSFKRTITGHGRAGFIVPHIKEEQFETHISLAHSYGIKFLYTMNTNTLLGKEYDTEFIGKVMKEVDKLVNFGVDGFIVALPFLIRLIRTEYPDLEVSASSFSRIRNVREVEEYTNLGVNTIIMHEDANRDFKLLKEVAALSRANRFEIELILNNSCLYGCPFRLTHDNISSVTSMVNGVNDVWFEYPVLLCATDVLNDPANLIRSRWIRPEDIKYYEEIGINRFKIAGRNKKTDWILRVVKAYAERKYEGDLLDLVSYPQGRAATKAVQMVNGPSSYFILTSVRIDNTKFPKGWIKFFFTNDCDTRSCKECKYCDIVAERVMTVNGEPFKSSEWSIRQPYPINIIPKFKERK | not soluble
2 | MIINKPSRVRPDGRGKVTGELKYMTDLSFPGMLYGKVLRSAYPHAEIVSVCTIKAEKMEGVQAVVTHKDVPGLNRFGIVIPDQPVLCEDRVRYVGDAIAAVAAETEEIAEAALELIQVEYKELEVMDSPEKALRPNAQRLHEDGNILHRAFFSNGDVEEGFQASDTVFEETYELPRQMHTYMETEGGVAVPEDDGGFTMYAGTQHGYKDRFQLARIFDIPEEKIRIVSSPMGGSFGGKDELNIQPYAALLALKSGRPVKIHQTRKESVRSGIKRHPMKITIKTGADHSGNLLAHDVKIVADTGAYATLGPAVLDFSVEHAAGPYRIPNIRTEGISVFTNNGVAGEFRGFGGNQITFALETHLDRLSGMLGIDPLELRRKNIRKPHDLGPLEHRIAPTDGAAQVLNAISKSPILKKTSRNCGYLQRGTGAAITMHGGGLGFGRMDAAGGRLSLSSEGKITASFGFEECGQGILAAIEQIVMEELGCAAEDISIVIGDTAKVPKSGSSTASRGTSMVWHAIQRLKKPFLAQLKKRAAEWSGCSAENLIPGAAGLRDKNTKALVVTYKELAEKGPLAEETAFDFPTTPDPVVGGHFLYSFGAAAVEVEVDLLTGDVKLIDCEHAIAAGPVVSPQGYRGQIEGGAAMALGYTLMEEAKMTDGRYAAENLDHYLIPGIKDVPDMKLIAIEDLMKGDVYGPRGVGEIGTIAITPAIVKAVHDAVGCWINKLPISREELLEAIDRKGLKQWT | not soluble
3 | MAVIVRKWFGLGRLPADLRCQVEAEGLIYLAEYVAVTRRFTGVIPGLRASHSIASYVGALAFTEQRVLGTLSMVPKLAGRVVDARWDGPQAGAATAEISPTGLQLDLDVADVDPKFSGQLALHFKATIGEDVLSRLPRRSLAFDVPAEYVNLAVGVTYSP | soluble
4 | MKSRAAVAFAPGKPLEIVEIDVAPPKKGEVLIKVTHTGVCHTDAFTLSGDDPEGVFPVVLGHEGAGVVVEVGEGVTSVKPGDHVIPLYTAECGECEFCRSGKTNLCVAVRETQGKGLMPDGTTRFSYNGQPLYHYMGCSTFSEYTVVAEVSLAKINPEANHEHVCLLGCGVTTGIGAVHNTAKVQPGDSVAVFGLGAIGLAVVQGARQAKAGRIIAIDTNPKKFDLARRFGATDCINPNDYDKPIKDVLLDINKWGIDHTFECIGNVNVMRAALESAHRGWGQSVIIGVAVAGQEISTRPFQLVTGRVWKGSAFGGVKGRSQLPGMVEDAMKGDIDLEPFVTHTMSLDEINDAFDLMHEGKSIRTVIRY | soluble
5 | MGSDKIHHHHHHMINSHQTQPLLRLENIEKSYGSHRILNKVSFCLYPGEITALIGDNGAGKSTLVQIISGYIQADKGNIYWQEQPLCYSNQYNAPFEMRRLGIQIVHQQLALIDELSIWRNFFLGNEINKKIGPFKFLNIRLMQHIASQSLQSFGLVCLPNIDLPVKKLSGGERQMLVVCRAKYFNAKLLILDEPTSALSPAQADKVLQIIKNIAQAGIAIVFITHNPAHIQNTAHKVIKLSCGTIEIMELTNTLIKG | not soluble
6 | DYKLFITEGYEVGRVNGLAVIGESAGIVLPIIAEVTPSMSKSEGRVIATGRLQEIAREAVMNVSAIIKKYTGRDISNMDVHIQFVGTYEGVAGDSASISIATAVISAIEGIPVDQSVAMTGSLSVKGEVLPVGGVTQKIEAAIQAGLKKVIIPKDNIDDVLLDAEHEGKIEVIPVSRINEVLEHVLEDGKKKNRLMSKFKELELAAV | soluble
7 | MGSDKIHHHHHHMRIAILSQGPELYSTKRLVEAATLRGHEVKVINPLECYMNINMRQSSIHIGGEELPPFDAVIPRIGASITFYGSAVLRQFEMMGVYALNDSVGISRSRDKLRSMQLMSRRGIGLPITGFANKPSDIPDLIDMVGGAPLVIKLLEGTQGIGVVLAETRKAAESVIEAFMGLKANIMVQEYIKEANGADIRCFVLGDKVVAAMKRQAMPGEFRSNLHRGGTASLVKLTPEERSVAIRAAKTMGLNVAGVDLLRSNHGPLVMEVNSSPGLEGIEGATAKDVAGAIIEFVEKNALKTKKPTQA | not soluble
8 | ACQIFVRNLPFDFTWKMLKDKFNECGHVLYADIKMENGKSKGCGVVKFESPEVAERACRMMNGMKLSGREIDVRIDRNA | soluble
9 | MTGRESNRIKDAEKKRVLDSTARQRRARKALEALEQDNYHDDPHADLVMSKKLPKFQDSLKTGKEKKGKRKGAEYFLVKYRKNFQQLLEEDKDKQPNYESAAAPAPQKPLRHFCAVCGNFSLYSCTACGTRYCCVRCLQTHQDTRCLKWTALEHHHHHH | not soluble
10 | MARKHIYIAYTGGTIGMKKSDHGYVPVAGFMEKQLASMPEFHRPEMPLFTIHEYDPLMDSSDMTPADWQLIADDIAANYDKYDGFVILHGTDTMAYTASALSFMFENLGKPVIVTGSQIPLADLRSDGQANLLNALHVAANYPINEVTLFFNNRLMRGNRSRKSHADGFSAFSSPNLPPLLEAGINIELSTNVKVDEKPSGEFKVNPITPQPIGVITMYPGISHEVIRNTLLQPVNAMILLTFGVGNAPQNPELLAQLKAASERGVIVVNLTQCLAGKVNMGGYATGCALADAGVISGYDMTPEAALAKLHYLLSQNLSYEEVKAKMQQVLRGEMTL | soluble
11 | MSLKKLISGIIAVAMALSLAACQKETKVISLSGKTMGTTYHVKYLDDGSITATSEKTHEEIEAILKDVNAKMSTYKKDSELSRFNQNTQVNTPIEISADFAKVLAEAIRLNKVTEGALDVTVGPVVNLWGFGPEKRPEKQPTPEQLAERQAWVGIDKITLDTNKEKATLSKALPQVYVDLSSIAKGFGVDQVAEKLEQLNAQNYMVEIGGEIRAKGKNIEGKPWQIAIEKPTTTGERAVEAVIGLNNMGMASSGDYRIYFEENGKRFAHEIDPKTGYPIQHHLASITVLAPTSMTADGLSTGLFVLGEDKALEVAEKNNLAVYLIIRTDNGFVTKSSSAFKKLTETKEEGGSHHHHHH | soluble
12 | MSLNRPNHVAPKTLLETLPRDRAESYLNHCSGNSASASALYLWEMDMAAALHEVLSMTEVAVRGAIDAQLQSFAKSHGVASGEWIKERDSLPHLSELRFANGRPLFDHGSLRRMSRKQEGGRTRMHPRSQASTSHGDLIAQVMFGTWGAMLPDKNDSRPQSVQDAINGLWREALQEAFPQYREGHHHHHH | soluble
13 | MSRRGGAPSRPPRPPIRYVATAPKPSRVVTRSRPEGVRWLRADGTPNWSQRVRRLPGDAKELASRPAVSVHKSAPILSAAEKIASHRVRGLVVIKGSGDAVLEGILLATDLVNYLGGGDYFQIVENRHRDSIYSALRKEVVATIMNRHPIAVSVSDDLDTILRIMVGEGIGFLPVLYDDGTLHGVITERNILGRIADIP | not soluble
14 | MTAENIVVVAVDGSEASQNAVRWAANTANKRGVPLRLAASYTMPQFLYAEGMVPPQELFDELQSETMDMIEAARVVAHEVAPDIKIGYVIAEGSPIDMLLDMSSDVTMIVMGSRGLGGLSGMVMGSVSAAVVSHADCPVVVVRSDNHVTETNKYGPVVVGVDGSDVSQRATEFAFEEAQARGAKLVAIHTWMDMQVQASLAGLAAAQQEWEIIEKEQTTLLKDRLQPLLERFPDVEVEMVITRDRPVRALEDCAHNAQLLVVGSHGRGGFRGMLLGSTSRALLQSAPCPMVVVRPNEKEN | not soluble
15 | MGSDKIHHHHHHMKAISNDKPQGVCATDFASVLGEENAVCLWENIEIGQQKRIQQAVTSGKPPTCIVYPRTQQQLAAVIAKAYSHNWRVLPCGSGSKLSWGGLAKGVDVVVGTERINQLIEHAVGDLTVTVEAGMKFSDLQALLAKSRQFLALDPTAPQSATIGGIVATGDTGSLRQRYGSVRDQLLGVTFVRADGEIAKAGGRVVKNVAGYDLMKLLTGSYGTLGFISQLTFRVYPLSEASGTVVLTGSAEAVSQAADILRGSALTPVQADLLSTKLVSSLGLGEGLGLIARFQSISESVKEQSNRVLEVGQKLGLDGAIFADADEASLWQRLQERIHSTATESVITCKIGVLPTAAVDILTQVGLGLIHISSGLGLLQLEDKNQVLKVREQLRSAGSDGTQANSGFLTILEAPMAVKEQVDVWGYNGNALPLMRRIKEQFDSKNILSPGRFVGGI | not soluble
16 | TQSLSNTFDSAIDDQLANVDVVMSGEKAPMPRGLIDELREDKDHVAAVAVQGATSAVLATEDRKAIQTGAASPTIGIFYGEGSAATTPEKITSGKEPHEANEVLAPESAAELGIKEGSTVVVVDEAGQREVKVVGTYSTEATAHPGVNLLMGEKAFLDRYQPEFIGTIFVKKADGSSEDVVQYLKDKYPDFKVDTGASLAEELTKTIKKALSFVNY | not soluble
17 | MGSDKIHHHHHHGVDTKGPAGIDATELYASLDLSLLVGNSNVTTKSSELTGPTDGTEENMTKDERSVSDCYIAIFKYDSKTKNVGDFLTSYYSSNGSISESLIFKIPKDKSERTDLKIVVIANAAASVSKYGLASASQISYADLKGKTLVEVPNVFVKVGETEIAKGDGGTYPDNKGGVYVNISEKILGLDQPANTPVEVKLIQRTAAIMLQQFKILKSDGTEYDNVEIKGLSLLNSKTIGQVAGEVSSGEKLYGMQSVNGTTERLYSYENTSSSQPTTLKIDYVYNNGETGSCSFPIKSRLSEASDPKAEVWAGYLYKLTVKLTNAAVDVTVKCVTQDWVFNKDHELEFTF | not soluble
18 | MTARTITDVITRPLPPLPLTAAASAEVLPDWAQPARRHPAAQPWPENLTRMAVGVVDSTGATGWFGPVSATVARMVFDQVAPAVIGRELAAWRAMASLAPHGRHRQGAHLRLAVSAVELAAWDLRSHATGVPVGALLAGERRERIPVYATALGIDIDHPLAPDIAAWLVDEGFWAQKWGLPGAARGETPRADAARLRRLREAAGERARIGVDVGGRWPADYARQMLPVLAEAGVCWVEEPGPISDADLARHGLARAAGEHDYEPTDQLRTLGGDIQIWQPDPTWCGGLAHTLSMVELAARLNIRSLPHGSGLAAALALAASAPAAAVPAIEYHLTLEPLRQDHQLDPLVPAAGHLDARTAAGLTSGYRFGEGDAGAAA | soluble
19 | MVYVIGMGARGREGLSLKALRRLEEAEVLIGGRRHLAHFPDHPGEKVPVQGPLEALLDLAEARLKEGKKVAFLASGDPLFYGIGKRVLERFPEAEVHPAPTAFQEAFARLKLPWDQARFFSLHGRPLGGVLLELSLSPLSVVYTDPEHTPAGIARALLEMGVDARAHVAERLGEEDERVRSFAGLKEVAEERFLDPNVLILEAKGPLPPRLGFFPDEAFEQRMPKKGLITKREVRLLALGLLGLPPDGVLWDIGAGTGSVGIEAARLAPWGEVYAVEKNPESWPHIVENARRFGAFNLHLVKGEAPEALKGLPAPHAVFVGGSGGELEEILRVSLKALRPGGRLVVAAITLENLLAAYGFLKGTGLPLEGFQVQASRVVPLARYHRLEAQNPITLLAVTKEGA | soluble
